Legend:
Type in all cases: in vivo
[1] = system: transgenic soybean plants; assay: Mesotrione injury of R0 transgenic soybean plants expressing TDO homologs; settings: promoter Constitutive 2, 3' UTR B; 210 g a.i./ha mesotrione at V3-V4, rated 7-14 days after treatment; mean of all tested events
Description: Plant expression vectors comprising the selected TDO homologs under the control of one of two constitutive promoters were transformed into soybean via an Agrobacterium tumefaciens-mediated method. Following Agrobacterium transformation, R0 transgenic soybean plants containing a single copy of the transgene were identified through molecular characterization and segregation analysis. Transgenic and wild-type (control) plants were grown in 6-inch pots filled with BM7 soilless mix in a growth chamber under the conditions of 28° C./23° C. (light/dark) and a 16 hr light/8 hr dark photoperiod. Plants were fertilized with 15-5-15 liquid fertilizer at the V3-V4 growth stage and treated with 210 g a.i./ha mesotrione (1X=105 g a.i./ha; Callisto®, Syngenta in 1% crop oil). Plants were visually rated 7-14 days after treatment on a scale of 0% to 100%, with 0%=no injury and 100%=plant death, relative to the wild-type controls. The results summarized in Table 2 represent the mean of all tested events (10-15) for each construct.

[2] = system: transgenic soybean plants; assay: Response of R0 soybean plants transformed with Round 2 TDO variants to mesotrione; settings: same expression elements; Os.TDO control failed transformation in this experiment
From the text: The next set of experiments was focused on determining if the balance between improved enzyme stability could outweigh a reduction in activity observed at optimal temperatures in soybean plants. […] To test this hypothesis, the eight variants from Round 2 biochemical analysis described in the preceding paragraph were transformed into soybean through Agrobacterium-mediated transformation, along with three controls. One of the controls (TDO_9) was a variant from the high-throughput screens that had poor activity. Two other controls were the D08 variant and the Os.TDO. R0 transgenic soybean plants were sprayed with the mesotrione herbicide to screen for herbicide tolerance. […] These included the Os.TDO control, the D08 variant and one Round 2 variant. The plants were scored for percent injury as described in the previous examples.

[3] = system: transgenic cotton plants; assay: Mesotrione treatment of cotton plants expressing TDO variants, crop injury; settings: Under 80° F., R2 cotton sprayed at V3
Description: Cotton is a crop of interest that is often exposed to high temperature growing conditions and thus, selected TDO variants were tested in cotton. Three TDO variants, D08, TDO_6, and TDO_8 were transformed into cotton (along with the Os.TDO control) using similar expression elements in single-cassette vectors or as part of multi-cassette vectors. R2 transgenic cotton plants were then screened for tolerance to mesotrione. Sixteen plants from two events each per construct were sprayed with two rates (2X and 8X) of mesotrione at V3 stage under normal (80° F.) and hot (100° F.) growing conditions. In addition, the effect of heat treatment on TDO accumulation in cotton plants were measured by ELISA. Cotton plants were planted and grown under normal greenhouse conditions (80° F. day/70° F. night) until V3 growth stage. Half of the plants were then moved to a higher temperature growth chamber (100° F. day/82° F. night) for the heat treatment, whereas the remaining half of the plants stayed in the same greenhouse (80° F. day/70° F. night). At day 3 after the plants were placed under different temperature conditions, leaf samples were collected for TDO protein measurement. The plants in 100° F. growth chamber and in 80° F. greenhouse were both sprayed with 2X mesotrione (210 g a.i./ha). Leaf samples were collected again 7 days after mesotrione treatment (DAT: Days After Treatment) for protein assay. Table 5 compares protein levels of the TDO variants in transgenic cotton plants grown under the two tested conditions. The protein levels for the TDO variants were measured at three time points for plants: 1) just before entering the high temperature treatment, 2) three days following placement into control (normal growth temperature) or high temperature (100° F.), and 3) 7 days after a 2X mesotrione spray.

B1: Os.TDO: TDO from Oryza sativa (HIS1), SEQ ID NO:2, polynucleotide codon optimized for dicot expression (protein, listed as Oryza sativa)
chain: MADESWRAPAIVQELAAAGVEEPPSRYLLREKDRSDVKLVAAELPEPLPVVDLSRLDGAEEATKLRVALQNWGFFLLTNHGVEASLMDSVMNLSREFFNQPIERKQKFSNLIDGKNFQIQGYGTDRVVTQDQILDWSDRLHLRVEPKEEQDLAFWPDHPESFRDVLNKYASGTKRIRDDIIQAMAKLLELDEDYFLDRLNEAPAFARFNYYPPCPRPDLVFGIRPHSDGTLLTILLVDKDVSGLQVQRDGKWSNVEATPHTLLINLGDTMEVMCNGIFRSPVHRVVTNAEKERISLAMLYSVNDEKDIEPAAGLLDENRPARYRKVSVEEFRAGIFGKFSRGERYIDSLRI
In the case of B1, the “% Injury” value [1] is reported as 12%, the “typical injury rating for R0 soybean” value [2] is reported as “high 20% to low 30%” and the “Crop Injury (%), 210 g/ha (2X) Mesotrione” value [3] is reported as 0%. For the same molecule, the “Crop Injury (%), 840 g/ha (8X) Mesotrione” value [3] was 0%.

— patent US20250134019A1, “TRIKETONE DIOXYGENASE VARIANTS FOR HERBICIDE TOLERANCE” (Monsanto Technology LLC, priority 2022, published 2025)
